The text below walks through data of the supplement of paper PMC9170038.

The test system of series [1] is K4 kissing-loop RNA reporter. Kind of series: apparent KD of K4 kissing-loop reporter; higher = weaker reporter binding. To be noted: Eterna round: R107. How it is done:
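RNA-MaP round R107: designed RNA switches with theophylline, tryptophan, arginine or FMN aptamers are transcribed on-chip within common flanks. They are titrated with a labelled K4 kissing-loop RNA reporter in RNA-MaP buffer (100 mM Tris pH 7.5, 80 mM KCl, 4 mM MgCl2), without ligand or with the indicated ligand. Median apparent KD per design.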

In a further series the test system is MS2 coat protein. Kind of series: apparent KD of MS2 coat protein; designed switch direction (-1 OFF switch, 1 ON switch): -1; higher = weaker reporter binding. Put shortly:
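Three titration conditions were used: no input, 200 uM small-molecule ligand, and an oligonucleotide input. In each, SNAP-549-labelled MS2 coat protein was raised from 0.7 or 1.5 nM, doubling, to 3 µM over designed RNA switches transcribed on Illumina chips by stalled E. coli RNA polymerase. Curve fits of normalised cluster fluorescence gave values whose per-design median over clusters is the apparent KD.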

Setting [2] is: input ligand: theophylline 20 uM.
[3] abbreviates: input ligand: tryptophan 2.4 mM.
[4] abbreviates: input ligand: microRNA oligo, concentration not stated.
The mark [5] stands for this setting: Eterna round: R95, input ligand: microRNA oligo, concentration not stated.
[6] abbreviates: Eterna round: R95, input ligand: FMN 200 uM.
The mark [7] stands for this setting: Eterna round: R95, input ligand: none.
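For apparent KD of K4 kissing-loop reporter in this document: bound reporter read as fluorescence of individual clusters on recovered sequencing chips by microscopy, with normalized cluster intensities fitted with a binding model.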

“AAAAUAAAAGGUCACCCAGUGAUGUUGGAAGGAGCGUGCGAAAGCACAGGUAGGUCGCCAACCUAAAAGUGACCAGGGAAACCCA [#SwitchBubble 7 #K4Early]”: the “apparent KD of K4 kissing-loop reporter” value in series [1] (input ligand: FMN 200 uM) is 0.594 µM; in series [1] (input ligand: arginine 13.2 mM), 0.253 µM; in series [1] (input ligand: none), 0.171 µM; in series [1] (setting [2]), 0.183 µM; in series [1] (setting [3]), 0.276 µM.
As to “AAAAUAAACCAGUGAUGUUGGUGUCUGGAUACCAGCGACGAAAGUCGCCCUUGGCAGCUAUGGACGUACAAAAUAAGUACGUCCU [MatMod 7 - Jieux - Same State - Theophylline A]”, the “apparent KD of K4 kissing-loop reporter” value in series [1] (input ligand: FMN 200 uM) turned out to be 0.704 µM; in series [1] (input ligand: arginine 13.2 mM), 0.485 µM; in series [1] (input ligand: none), 0.622 µM; in series [1] (setting [2]), 0.637 µM; in series [1] (setting [3]), 0.51 µM.
As for “AAAAUAACCCAGUGAUGUUGGUAACCAGAUACCAGCGACGAAAGUCGCCCUUGGCAGCUGUGGACGUACAAAAUAAGUACGUCCU”, the “apparent KD of K4 kissing-loop reporter” value came to 0.686 µM in series [1] (input ligand: FMN 200 uM); 0.765 µM in series [1] (input ligand: arginine 13.2 mM); 0.859 µM in series [1] (input ligand: none); 0.583 µM in series [1] (setting [2]); 0.649 µM in series [1] (setting [3]).
As to “AAAAUAAUCCAGUGAUGUUGGUAUCCAGAUACCAGCGACGAAAGUCGCCCUUGGCAGCUGUGGACGUACAAAAUAAGUACGUCCU [#OpenEnded 9 #StaticStem #K4Early]”, the “apparent KD of K4 kissing-loop reporter” value was 0.502 µM in series [1] (input ligand: FMN 200 uM); 0.386 µM in series [1] (input ligand: arginine 13.2 mM); 0.535 µM in series [1] (input ligand: none); 0.842 µM in series [1] (setting [2]); 0.63 µM in series [1] (setting [3]).
The matching figures for “AAAAUUAUCUGAAGGAGCGUGAAAUAAUAUUAAACAUAACAACCCAGUGAUGUUGGGUUAUCACAGGUAGGUCGCAGAUGUAGAA [Same State Arginie B GF 25]”: 0.106 µM, 0.113 µM, 0.108 µM, 0.115 µM and 0.0908 µM.
With “UUUUGGUAAGGAUAUGAAUCGAUCUCGGAAACGAGAUCGAUUCAGAAGGUACAUGAGGAUCACCCAUGUUGAUU [Mod of Brourd 7 - Jieux - Exclusion 4] (Eterna round: R97, puzzle: Exclusion 4)”, the “apparent KD of MS2 coat protein” value in the series with MS2 coat protein (input ligand: FMN 200 uM) turned out to be 0.119 µM; in the series on MS2 coat protein (input ligand: none), 0.026 µM.
On to “UUUUUAAAUGAAGGAUAUACUUAACAUGAGGAUCACCCAUGUGGUGUUGUGAGUGAGUGAGUUUAGUAGAAGGUCAAGUAUUUU [JMF's solution 44] (Eterna round: R96, puzzle: Exclusion NG 2)”, for which the results for the “apparent KD of MS2 coat protein” value with MS2 coat protein (input ligand: FMN 200 uM), in the series with MS2 coat protein (setting [4]) and with MS2 coat protein (input ligand: none) were 0.814 µM, 0.339 µM and 0.392 µM, respectively.
Take “UUUUUACAUGAAGGAUAUACUUAACAUGAGGAUCACCCAUGUGGUGUUGUGAGUGAGUGAGUUUAGUAGAAGGUCAAUUAUUUU [JMF's solution 22] (Eterna round: R96, puzzle: Exclusion NG 2)”: the “apparent KD of MS2 coat protein” value was 0.556 µM in the series with MS2 coat protein (input ligand: FMN 200 uM), 0.241 µM in the series on MS2 coat protein (setting [4]) and 0.314 µM with MS2 coat protein (input ligand: none).
For “UUUUUACAUGAGGAUCACCCAUGUCAGGAUAUCGUUAUAUUUUAUUAUUUUAUUUUUUCGAGAAGGGACUAUUA [My solution] (puzzle: Exclusion 1)”, the “apparent KD of MS2 coat protein” value with MS2 coat protein (setting [5]) was 0.0746 µM.
As for “UUUUUACAUGAGGAUCACCCAUGUCAGGAUAUGGUUAUAUUUUAUUAUUUUAUUUUUUCCAGAAGGGACUAUUA [My solution] (puzzle: Exclusion 1)”, in the series with MS2 coat protein (setting [5]), the “apparent KD of MS2 coat protein” value is 0.273 µM.
In the case of “UUUUUAUAACAAGGAUAUACUAAACAUGAGGAUCACCCAUGUAAUAUUAUGAGUGAGAGAGAUAAGUAGAAGGUGUAUUAUUUU [JMF solution 3] (Eterna round: R96, puzzle: Exclusion NG 2)”, in the series with MS2 coat protein (setting [4]), the “apparent KD of MS2 coat protein” value came to 0.0996 µM.
In the case of “UUUUUAUAAGGAUAUAUGUGGAUAAUUUUUAUAUGAAAAUUACAUGAGGAUCACCCAUGUAGAAGGUAUGGAGG [-13.9, -11.8 kcal, 35% A] (Eterna round: R97, puzzle: Exclusion 2)”, the “apparent KD of MS2 coat protein” value was 0.024 µM in the series with MS2 coat protein (input ligand: FMN 200 uM) and 0.0392 µM in the series on MS2 coat protein (input ligand: none).
“UUUUUAUAUGAAGGAUAUACUUAACAUGAGGAUCACCCAUGUGGUGUUGUGAGUGAGAGAGUUUAGUAGAAGGUCAAUUAUUUU [JMF's solution 5] (Eterna round: R96, puzzle: Exclusion NG 2)”: the figures for the “apparent KD of MS2 coat protein” value with MS2 coat protein (input ligand: FMN 200 uM), in the series on MS2 coat protein (setting [4]) and in the series with MS2 coat protein (input ligand: none) were 0.714 µM, 0.28 µM and 0.3 µM, respectively.
The matching figures for “UUUUUAUAUGAAGGAUAUACUUAACAUGAGGAUCACCCAUGUGGUGUUGUGAGUGAGUGAGUUUAGUAGAAGGUCAAAGAUUUU [JMF's solution 57] (Eterna round: R96, puzzle: Exclusion NG 2)”: 1.55 µM, 0.304 µM and 0.295 µM.
The corresponding values for “UUUUUAUAUGAAGGAUAUACUUAACAUGAGGAUCACCCAUGUGGUGUUGUGAGUGAGUGAGUUUAGUAGAAGGUCAAGUAUUGU [JMF's solution 39] (Eterna round: R96, puzzle: Exclusion NG 2)” are 0.891 µM, 0.347 µM and 0.441 µM.
The matching figures for “UUUUUAUAUGAAGGAUAUACUUAACAUGAGGAUCACCCAUGUGGUGUUGUGAGUGAGUGAGUUUAGUAGAAGGUCAAUGAUUGU [JMF's solution 60] (Eterna round: R96, puzzle: Exclusion NG 2)”: 0.918 µM, 0.216 µM and 0.369 µM.
“UUUUUAUAUGAAGGAUAUACUUAACAUGAGGAUCACCCAUGUGGUGUUGUGAGUGAGUGAGUUUAGUAGAAGGUCAAUUCUUUU [JMF's solution 11] (Eterna round: R96, puzzle: Exclusion NG 2)”: the “apparent KD of MS2 coat protein” value in the series with MS2 coat protein (input ligand: FMN 200 uM) is 0.957 µM; in the series on MS2 coat protein (setting [4]), 0.395 µM; in the series with MS2 coat protein (input ligand: none), 0.51 µM.
In the case of “UUUUUCAGGCCAGAUCCUCACAUGAGGAUCACCCAUGUGCUCGUCUGUUUUCGCACUAUCACGUUUGUGAUAGUGCU [Level Boss var2-12] (puzzle: Sensor v3, turn-off variant 1)”, the “apparent KD of MS2 coat protein” value was 0.207 µM in the series on MS2 coat protein (setting [6]), 0.0335 µM with MS2 coat protein (setting [5]) and 0.216 µM with MS2 coat protein (setting [7]).
With “UUUUUCAGGCCAGAUCCUCACAUGAGGAUCACCCAUGUGCUCGUCUGUUUUCGCACUAUCUUUUUUUUGAUAGUGCU [Level Boss var2-13] (puzzle: Sensor v3, turn-off variant 1)”, the “apparent KD of MS2 coat protein” value with MS2 coat protein (setting [6]) stood at 0.291 µM; in the series on MS2 coat protein (setting [5]), 0.0268 µM; in the series on MS2 coat protein (setting [7]), 0.309 µM.
“UUUUUCAGGCCAGAUCCUCACAUGAGGAUCACCCAUGUGCUCGUCUGUUUUCGCACUAUCUUUUUUUUGUUAGUGCU [Level Boss var2-14] (puzzle: Sensor v3, turn-off variant 1)”: the “apparent KD of MS2 coat protein” value was 0.287 µM with MS2 coat protein (setting [6]), 0.0227 µM in the series with MS2 coat protein (setting [5]) and 0.322 µM with MS2 coat protein (setting [7]).
In the case of “UUUUUCUUUGUAGGAUAUCGUUUUUUUUUUUUUCGAGAAGGACAUGAGGAUCACCCAUGUUUCAAAAUUUUUUUUUUUUUUUUU [First try] (Eterna round: R96, puzzle: Exclusion NG 1)”, the “apparent KD of MS2 coat protein” value was determined as 0.0251 µM in the series on MS2 coat protein (input ligand: FMN 200 uM), 0.0133 µM in the series with MS2 coat protein (setting [4]) and 0.0178 µM in the series on MS2 coat protein (input ligand: none).
Turning to “UUUUUGUCAGGAUAUGACUAGAUGCACGUUAGUGUGUUUACUUAGAAGGGACAUGAGGAUCACCCAUGUAUUCC [Bring Us a Shrubbery-14] (puzzle: Exclusion 4)”, in the series with MS2 coat protein (setting [5]), the “apparent KD of MS2 coat protein” value turned out to be 0.0264 µM.
The same measure, in the same setting: in the case of “UUUUUGUCAGGAUAUGAGUCGUAGAACAAUAGUACUACGUCUCAGAAGGGACAUGAGGAUCACCCAUGUGCCUC [Fiskers Ex 4 Super Stable 44 mod 28] (puzzle: Exclusion 4)” it was 0.0262 µM; in that of “UUUUUGUCAGGAUAUGCGUAGUAGAACAAUAGUACUACUACGUAGAAGGGACAUGAGGAUCACCCAUGUUCCUC [Fiskers Ex 4 Super stable 44 mod 17] (puzzle: Exclusion 4)”, 0.0139 µM.
For “UUUUUGUGAGGAUAUGCGUAGUAGAACAAUAGUACUACUACGUAGAAGGCACAUGAGGAUCACCCAUGUUCCUC [Fiskers Ex 4 Super stable 44 mod 15] (Eterna round: R96, puzzle: Exclusion 4)”, the entries for the “apparent KD of MS2 coat protein” value in the series on MS2 coat protein (input ligand: FMN 200 uM), with MS2 coat protein (setting [4]) and with MS2 coat protein (input ligand: none) were 0.339 µM, 0.0347 µM and 0.0431 µM, respectively.
For “UUUUUGUGAGGAUAUGCGUAGUAGAACAAUAGUACUACUACGUAGAAGGCACAUGAGGAUCACCCAUGUUCCUC [Fiskers Ex 4 Super stable 44 mod 15] (puzzle: Exclusion 4)”, the “apparent KD of MS2 coat protein” value in the series on MS2 coat protein (setting [5]) was found to be 0.0364 µM.
Consider “UUUUUUGGGCAAGGAUAUCCUGUGCGGUUCCGGCUCGUGUCUGUUACAUGAGGAUCACCCAUGUGGGAGAAGGUGCCUGUGGUU [Design 86] (Eterna round: R96, puzzle: Exclusion NG 2)”, for which the figures for the “apparent KD of MS2 coat protein” value with MS2 coat protein (input ligand: FMN 200 uM), in the series with MS2 coat protein (setting [4]) and in the series on MS2 coat protein (input ligand: none) were 0.183 µM, 0.0373 µM and 0.043 µM, respectively.
For “UUUUUUGUUGUGAGGAUAUCGUAUUCUUUUUGUUACGAGAAGGCACAUGAGGAUCACCCAUGUUUCUUGAUGUU [JR_BMOE4_Sub067] (puzzle: Brourd's mod of Exclusion 4)”, in the series with MS2 coat protein (setting [5]), the “apparent KD of MS2 coat protein” value was found to be 0.0153 µM.
“UUUUUUUGGCAAGGAUAUCCUGUGCGGUUCCGGCUCGUGUCUGUUACAUGAGGAUCACCCAUGUGGGAGAAGGUGCCUGUGGUU [Design 87] (Eterna round: R96, puzzle: Exclusion NG 2)”: the “apparent KD of MS2 coat protein” value came to 0.0828 µM in the series on MS2 coat protein (input ligand: FMN 200 uM), 0.0368 µM in the series with MS2 coat protein (setting [4]) and 0.0328 µM with MS2 coat protein (input ligand: none).
The corresponding values for “UUUUUUUUGCGAGGAUAUGCAUUUAGUUAGUUAGCAGAAGGCGCGUUUCUAUACUCCUCUUCGUACAUGAGGAUCACCCAUGUU [JR_ExcNG1_Sub032] (Eterna round: R96, puzzle: Exclusion NG 1)” are 0.0749 µM, 0.0357 µM and 0.0448 µM.
